Assay results: article PMC6880778

B1: recombinant ecto-PfMSP10 (D29-Q507) (domain or fragment)
chain: DDIKNTSQKKITYDKYNKNKENMNNEKNDNKDNKDNIYNDNINNDNINNDNINNEDEYKFLSMKHYKDSLSNKLNNENDHMNYLIRKRKDNTQGSQHFNENIENNENVENNENIENNENNENIENIENNENNENNENIENNENNENNENSSIMNSESYNNIINSNEHNEEQIKKKEEDLIEAFFPFILKKLDNESLSLDNKYDDYYNLPNDHNDTHKENSSDHNLLGYKLGNNLKSYLIEENDVSQKKTDDINESASSDSENIQEILSTDSNTSHLKERKNQKAPPGEHKPEVKNALLNSQVASPKGEDEKKSQPQHPLVNSGDQLQHPKEIDENAEKIRRTLLKESRDIKNTTAIIDETVYKFEQLIMKGRYYATAVRNFVIFKVNYICEYSKCGPNSRCYIVEKDKEQCRCRPNYIVDMSVNYFKCIPMKDMNCSKNNGGCDVNAECTIVEGAVKCQCSHLYFGDGVFCVKNSQTKQ
B2: PfMSP10 region 1 (R1, D29-N188) (domain or fragment)
chain: DDIKNTSQKKITYDKYNKNKENMNNEKNDNKDNKDNIYNDNINNDNINNDNINNEDEYKFLSMKHYKDSLSNKLNNENDHMNYLIRKRKDNTQGSQHFNENIENNENVENNENIENNENNENIENIENNENNENNENIENNENNENNENSSIMNSESYNN

Legend:
[1] = target: ecto-PfGAMA (N25-G715) (P. falciparum); assay: SPR; Biacore X100, CM5 chip; PfGAMA as ligand, analyte in single-cycle kinetics at 0.16, 0.8, 4, 20 and 100 nM; global fit to a 1:1 binding model
[2] = target: recombinant ecto-PfGAMA (N25-G715) (P. falciparum); assay: SPR; Biacore X100, CM5 chip; recombinant PfGAMA as ligand, PfMSP10 protein as analyte; single-cycle kinetics at 0.16, 0.8, 4, 20 and 100 nM; global fitting in a 1:1 binding model
[3] = target: recombinant ecto-PfGAMA (N25-G715) (P. falciparum)

Molecule	Kd [1]	koff [1]	kon [1]	Kd [2]	GIA activity (growth inhibition of cultured P. falciparum parasites) of 20 mg/ml rabbit antibodies raised against PfMSP10 R1 [3]
ecto-PfMSP10 (D29-Q507) (domain or fragment)	99.7 nM	0.0015 s⁻¹	15000 M⁻¹ s⁻¹	–	–
PfMSP10 R1 (D29-N188) (domain or fragment)	648 nM	0.000355 s⁻¹	548 M⁻¹ s⁻¹	–	–
B1	–	–	–	100 nM	–
B2	–	–	–	650 nM	11%
